From publication PMC3580387 come the findings set out here.

The assay concerns the target mCherry-Actin (UniProt P60709). In words: FRET or BRET.

On to “Venus-IQGAP1 (Venus fused to human IQGAP1) (from UniProt P46940 1-1657) (natural protein)”, for which the mean E% (FRET efficiency), Case 1 ROIs came out at 29.6%; the mean E% (FRET efficiency), Case 2 ROIs was 25.4%; the mean E% (FRET efficiency), Case 3 ROIs was determined as 39.3%.

“TFP-N-WASP (Teal fluorescent protein fused to human N-WASP) (from UniProt O00401 1-505) (natural protein)” returned a mean E% (FRET efficiency), Case 1 ROIs of 20.3%; a mean E% (FRET efficiency), Case 2 ROIs of 27.9%; a mean E% (FRET efficiency), Case 4 ROIs of 25.2%.
